According to a protein production outcome set (Wang et al. 2014):

Test: label from the status in PepcDB records

| Sequence | protein production |
| --- | --- |
| AADQVLELVRPFLEELRNISQETAVLGKRQDGQVIYLDVALSHQPIRYHVQVGESRAAHTNSIGKAIFPMLDEKEQKALLAKANWRALTSRTIATREAFLRDMAQTKARGWSSNVGESVEDLAAVALPFQLASEWYAVSIVGPYERMERNWDAHVETLLQTGARLRQAIAVHEGQ | failed |
| AALVRQHLDALPAASVPDLPAMARLLCTSVRTLKRRLQEEGTCYRQVLAGHRGARALELLGNPRLSLSQVAERLGFSDLSSFSQSFKRWFGVAPSVYRQERCG | failed |
| AASEAEYGKVSKAWTLHADGSQEYRSSMELTLFTHTAMNSTYGESFIVYNPDFQTLKIHSSYTRQKDGTIVKTPDNAFVEVLPRFAADAPAYNQLKEMVVVHTGLELGATIYLDYSIITKPGYYPALDINERLQETSPVKECKVSISVPEGTPLACGLYGSPVKAVEESHDGIKEVHWTLRNIPASSREAFQPKNREASPHLVASTYPSGKAALATLDKRLKESQGYESKTFAQFLTDKSGNEQEKVNIIRDHILNNLSTCPIPMAMTGYTVRDIDTVLRSAYGTPLEIAQLLNVMLNAAGIPSEVLAVYPGHLDTDACGLAAIQTLAVKATVDGKDQYLSASPLTNRGGLDKVVSLSGTSIEIETTPIQIKESRSVAISADQAKDGFAICVLPAISAGIDSWGMSALNSKRSNLFELPSLIREEVTYTVTPAEGMKLQTSTQEQVISKPFGKVTRTITPRGNTIEVVRTIELNKQQFTPAEYSDVRSLIHEWTNPDNRVLLFSL | not failed |
| AEIFTTLSCEPDIPNPPRIANRTKNSLTLQWKAPSDNGSKIQNFVLEWDEGKGNGEFCQCYMGSQKQFKITKLSPAMGCKFRLSARNDYGTSGFSEEVLYYTSGC | not failed |
| AHAPQRISGLALFDPAGVEAPETSDLQHLLEQGKNPFLVRSRADFQHFYSLTMAAPPWVPEAVLAAIAERYQARRGQLARIFAELQASPPMEPELAKIQAPTLLLWGREDRLLHPSSAQVWAKGLPQAQVQLWEGIGHMPMVERPVRSARLYQQFLER | failed |
| AIAAASLGEFEWCVATNTFRISPRLAKLSGIPEGELDSQGGNALYAYIHPDDREAVRANIDRQLAQSGRFTAEYRRTPLEHGGETWNSVAGVMLMDADGQPSRLIGVVQDITPRKL | failed |
| AIADSKSHGWLIGANGTILETHDGGEHWEPRTFDFLRMDEEINYRFESISCYGNEGWIVGKPPILLHTQNGGKDWERIPLSSKLPGEPVLITALGPNRAELATTAGAIYTTDNGGKNWKALVKETIDATLNRTTSSGVTGASYYTGTVISITRDCNGYYLAISSRGNFYVTWHPGQEYWTPHPRDSSRRIQSMGFVQNDIHKGLWMANNGGFLGFSPPNPSLDTVSSIPFQRVDIRTGGYGILDVAFHQQKRNEVWASVGSGILYRSFDGGKHWEKDPWLDHLGSVLYRIKFVENSGFILGAKGTLLRYNG | not failed |
| AIAKLPISTISPIHYMKSVVSSRETRNESNKSRRTFASTEWNKIIRETLYLETVYIPVDATSHSPDIIFKLQSPVEPKVLTVGVACKGRWKSEGIGWSDIIDEAKKFLDPVYDQVLSSAMDYHHCMLIIVSTKLSLNVSNELGNQSRCYSSGMFIGGDSFKVPDNCELVILCERDVQMLIDKEILNGLERAFCVSHNPTFWDFGLDLLDRIRNSFLSWQ | failed |
| AIANDDRATAFNALKNKTVCVQGDGNSRQFYHALVEILSNHSSAIPVNKNGNDFCNAPFAQCPQDTYYFDLVDKSDNLSVKLYWRWAPEFSDIECPMKVPSGFTPGSNYSFPSGPDTLSCDINIMDAGQWELFEKDANVTTAGYSQGVSNLSKCFSSDKSAKYFWIAAYALTPEQLQIHLPYNNTDVERINEVATQGLNSTACVLNGYDVTVNAFNDTKEATTDGIHYLGWINEQVVHLFFNAVTNSSAPTVPSSNVSVTSPNVQLGQVPNLNPSTTNSFLPVQTIVTVPSSSATSASSGLNFGGSSQGGGSGIPQL | failed |
| AIASQFDPDKFKQEQKARWNQGARSTWTLWKQTQVEDTPAKFFLGLVPIRPGVKVLDLACGSGETSLQVAQLVSSHLPSDSKDAKIVCVDISEEMLRVLSQRAQELGLSSVVETCCEDAENINFGTHYFDMVMSQFGVMFLPHLPEDLANIRKMMKPGSLFCCVVWGEEKDCHIFYAARSVVSPPPPPPGTPVSYGTKEKVMEALRKAEFSDVKAVEFQVVHETKDAEEYITLMSGVNQWLEKSLGEKGSGPWQKLVEYCNNSYRTSRGTLQFPNVCVGITAIA | failed |
